In data set [1] the test system is Lys*-Ala-Gly-Leu-Leu-Cys (SEQ ID NO:32).
Data set [2] concerns Lys*-Pro-Ala-Gly-Leu-Leu-Gly-Cys (SEQ ID NO:2), pendant in PEG(8000)DA hydrogel and complexed with Pt.
In data set [3] the test system is Lys*-Gly-Leu-Cys (SEQ ID NO:33).
In data set [4] the test system is Lys*-Pro-Ala-Gly-Leu-Leu-Gly-Cys (SEQ ID NO:2).
The test system of data set [5] is Lys*-Ala-Gly-Leu-Leu-Cys (SEQ ID NO:32). Nature of the data set: peptide cleavage kinetics by HPLC, 10 nM activated MMP; the filing calls Km 'affinity or binding strength'.
For data set [6], the system named is Lys*-Gly-Leu-Cys (SEQ ID NO:33). Described as above.
The subject of data set [7] is Lys*-Pro-Ala-Gly-Leu-Leu-Gly-Cys (SEQ ID NO:2). The data set is described as above.

The values below come from patent publication US20080131510.

In general, Vmax refers to the rate approached at saturating substrate. Broadly, the kcat is the maximal rate divided by the concentration of active sites. As a reminder, the Km is the concentration of substrate that gives half-maximal velocity.

matrix metalloprotease-9 (MMP-9), activated, sequence (chain, as listed by the source): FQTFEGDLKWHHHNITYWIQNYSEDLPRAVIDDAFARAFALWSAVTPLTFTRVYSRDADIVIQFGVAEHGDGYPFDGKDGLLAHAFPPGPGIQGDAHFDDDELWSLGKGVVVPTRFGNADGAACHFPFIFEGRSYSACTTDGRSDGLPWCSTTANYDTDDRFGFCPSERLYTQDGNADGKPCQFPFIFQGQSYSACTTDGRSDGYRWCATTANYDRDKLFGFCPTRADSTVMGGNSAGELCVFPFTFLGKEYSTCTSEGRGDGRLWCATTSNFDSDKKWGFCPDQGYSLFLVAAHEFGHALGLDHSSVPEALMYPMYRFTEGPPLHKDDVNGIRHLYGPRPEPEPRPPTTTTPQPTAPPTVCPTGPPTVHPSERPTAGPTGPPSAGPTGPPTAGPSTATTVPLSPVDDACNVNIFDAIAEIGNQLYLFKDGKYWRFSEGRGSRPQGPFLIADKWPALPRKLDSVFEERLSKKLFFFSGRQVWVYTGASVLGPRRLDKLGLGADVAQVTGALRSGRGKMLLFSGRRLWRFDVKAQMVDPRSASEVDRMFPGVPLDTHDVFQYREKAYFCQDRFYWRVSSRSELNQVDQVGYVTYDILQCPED

As for “matrix metalloprotease-9 (MMP-9), activated”, the Kcat/Km in data set [1] stood at 252 M⁻¹ s⁻¹; in data set [3], 358 M⁻¹ s⁻¹; in data set [4], 24000 M⁻¹ s⁻¹. The maximal velocity (Vmax) in data set [1] was 9.9e-10 M/s; in data set [3], 5.3e-09 M/s; in data set [4], 2.4e-07 M/s. The kcat was 0.04 s⁻¹ in data set [1], 0.21 s⁻¹ in data set [3] and 9.6 s⁻¹ in data set [4]. Further, in data set [2], the “release of cleaved fragment from the PEG(8000)DA hydrogels” value was “the addition of MMP-2 and MMP-9 showed a significantly higher release of cleaved fragment from the PEG(8000)DA hydrogels compared to the control”. Further, the Km came out at 160 µM in data set [5], 600 µM in data set [6] and 400 µM in data set [7].
